Data set [1] concerns NC(=O)c1ccc[n+]([C@@H]2O[C@H](COP(=O)(O)OP(=O)(O)OC[C@H]3O[C@@H](n4cnc5c(N)ncnc54)[C@H](O)[C@@H]3O)[C@@H](O)[C@H]2O)c1. Briefly: purified protein. It counts as biochemical, Bacillus cereus. The following applies: 2.0 μM ThsA, 63 mM NaCl, 14 mM Tris-HCl pH 7.5, 25 °C.
Data set [2] concerns the molecule itself. Description: SEC-MALS; Superdex 200 Increase 10/300 GL, 200 mM NaCl, 2 mM DTT, 20 mM HEPES pH 7.5, 25 °C; ThsA loaded at 11 mg/mL, ThsB at 24 mg/mL (~1 mM). In general terms: In gel filtration, larger molecules generally elute earlier.
Data set [3] deals with the molecule itself. Briefly: SEC; analytical SEC of single ThsA proteins (wild type, N112A, H152A) to compare the oligomeric state; Superdex 200 10/300 GL, 150 mM NaCl, 1 mM DTT, 20 mM HEPES pH 7.5.
Data set [4] concerns the molecule itself. Description: crystal structure; ThsA crystals, sitting drop, 20 °C, 22% polypropylene glycol 400, 0.2 M MgCl2, 0.1 M MES pH 6.5; 2.5 Å; four protomers in the asymmetric unit.

Substitutions are numbered along the chain they refer to. Names may count otherwise. “And” between values parts separate entries of the source, which are not always exact repeats. Equal entries are not always repeated.

In general, Km refers to the substrate concentration at which the rate is half of its maximum. A word on the kcat: it is the maximal rate divided by the concentration of active sites. Regarding ThsA (Bacillus cereus MSX-D12), in data set [1], the Km worked out at 270 µM and the kcat is 0.565 s⁻¹.

B1: ThsA of the Bacillus cereus MSX-D12 Thoeris defense system, wild type (enzyme)
chain: MNPIVELFIKDFTKEVMEENAAIFAGAGLSMSVGYVSWAKLLEPIAQEIGLDVNKENDLVSLAQYYCNENQGNRGRINQIILDEFSRKVDLTENHKILARLPIHTYWTTNYDRLIEKALEEENKIADVKYTVKQLATTKVKRDAVVYKMHGDVEHPSEAVLIKDDYEKYSIKMDPYIKALSGDLVSKTFLFVGFSFTDPNLDYILSRVRSAYERDQRRHYCLIKKEERRPDELEADFEYRVRKQELFISDLSRFNIKTIVLNNYNEITEILQRIENNIKTKTVFLSGSAVEYNHWETEHAEQFIHQLSKELIRKDFNIVSGFGLGVGSFVINGVLEELYMNQGTIDDDRLILRPFPQGKKGEEQWDKYRRDMITRTGVSIFLYGNKIDKGQVVKAKGVQSEFNISFEQNNYVVPVGATGYIAKDLWNKVNEEFETYYPGADARMKKLFGELNNEALSIEELINTIIEFVEILSN
notes: ThsA, Bacillus cereus MSX-D12, synthetic thsA gene in pET28a; the structure has an N-terminal sirtuin-like domain (residues 1-283) and a C-terminal SLOG-like domain (residues 284-476); The synthetic thsA gene was cloned; Predominantly a tetramer by SEC-MALS, with a trace of octamer; also called B. cereus ThsA; wild-type ThsA; source: E. coli BL21(DE3), purified (HisTrap, TEV cleavage, second …)
By stoichiometry N is commonly meant a count of units in the complex or per binding partner. In the case of B1, the “stoichiometry N” value in data set [2] was 4 and 8.

B2: ThsA N112A mutant (enzyme)
chain: B1 chain with N110A
notes: ThsA, Bacillus cereus MSX-D12, synthetic thsA gene in pET28a, point mutant made by PCR with mismatched primers; source: E. coli BL21(DE3), purified; not shown: His6, N-terminal, cleaved; MBP, N-terminal, cleaved
Consider B2, for which, in data set [3], the binding result is “binds”.

B3: selenomethionyl ThsA of Bacillus cereus MSX-D12 (crystallised) (enzyme)
chain: B1 chain
modifications: selenomethionine at seven of eight possible Met sites
notes: ThsA, Bacillus cereus MSX-D12, synthetic thsA gene in pET28a; N-terminal sirtuin-like domain (residues 1-283) and C-terminal SLOG-like domain (residues 284-476) in the structure; Four protomers (chains A-D) in the asymmetric unit; The methods describe only selenomethionyl protein before the crystallisation; that the deposited structure is of this form is inferred; also called selenomethionyl …
Consider B3, for which the binding result in data set [4] is listed as “binds”.

For the origin of these results see PMC7272460, “Structural and functional evidence of bacterial antiphage protection by Thoeris defense system via NAD^+ degradation” (Nature Communications, 2020).
